Substitutions are numbered along the chain they refer to. Names and notes keep the numbering of the source.
B1: RECQ1-WT (full-length His-tagged human RECQ1) (enzyme, UniProt P46063 1-649, looked up)
chain: MASVSALTEELDSITSELHAVEIQIQELTERQQELIQKKKVLTKKIKQCLEDSDAGASNEYDSSPAAWNKEDFPWSGKVKDILQNVFKLEKFRPLQLETINVTMAGKEVFLVMPTGGGKSLCYQLPALCSDGFTLVICPLISLMEDQLMVLKQLGISATMLNASSSKEHVKWVHAEMVNKNSELKLIYVTPEKIAKSKMFMSRLEKAYEARRFTRIAVDEVHCCSQWGHDFRPDYKALGILKRQFPNASLIGLTATATNHVLTDAQKILCIEKCFTFTASFNRPNLYYEVRQKPSNTEDFIEDIVKLINGRYKGQSGIIYCFSQKDSEQVTVSLQNLGIHAGAYHANLEPEDKTTVHRKWSANEIQVVVATVAFGMGIDKPDVRFVIHHSMSKSMENYYQESGRAGRDDMKADCILYYGFGDIFRISSMVVMENVGQQKLYEMVSYCQNISKCRRVLMAQHFDEVWNSEACNKMCDNCCKDSAFERKNITEYCRDLIKILKQAEELNEKLTPLKLIDSWMGKGAAKLRVAGVVAPTLPREDLEKIIAHFLIQQYLKEDYSFTAYATISYLKIGPKANLLNNEAHAITMQVTKSTQNSFRAESSQTCHSEQGDKKMEEKNSGNFQKKAANMLQQSGSKNTGAKKRKIDDA
B2: RECQ1-W227A (full-length His-tagged human RECQ1 aromatic loop mutant) (enzyme, UniProt P46063 1-649, looked up)
chain: B1 chain with W227A
B3: RECQ1-F231A (full-length His-tagged human RECQ1 aromatic loop mutant) (enzyme, UniProt P46063 1-649, looked up)
chain: B1 chain with F231A

Molecular target: the molecule itself
Test: SEC

Binding result, binds:
B1
B2
B3
